# According to the supplement of paper PMC5998384:
# Tests used:
# HeLa Kyoto [1] = experiment: melting temperature (median over replicates), in situ; higher = more thermally stable
# HeLa Kyoto [2] = experiment: solubility in G1/S (NP-40 vs SDS abundance) (log2 ratio); higher = more soluble; conditions: cell cycle stage: G1/S
# HeLa Kyoto [3] = experiment: solubility change mitosis vs G1/S (difference of NP-40 vs SDS log2 ratios) (log2 ratio difference); higher = more soluble in mitosis
# HeLa Kyoto [4] = experiment: thermal stability score vs G1/S (z-score of summed log2 fold changes over temperatures); higher = more thermally stable than in G1/S
# [5] = cell cycle stage: early G1 (4.5 h after nocodazole release)
# 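Throughout, for melting temperature (median over replicates), in situ: HeLa Kyoto cells synchronized by double thymidine or nocodazole block, proteins quantified by TMT10plex mass spectrometry, three independent biological replicates.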
# 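Throughout, for solubility change mitosis vs G1/S (difference of NP-40 vs SDS log2 ratios): synchronized HeLa Kyoto cells (double thymidine block for G1/S, nocodazole release for mitosis), protein amounts in NP-40 versus SDS lysates quantified by mass spectrometry, three biological replicates.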
# 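Throughout, for solubility in G1/S (NP-40 vs SDS abundance): HeLa Kyoto cells arrested at G1/S by double thymidine block, proteins quantified by TMT10plex mass spectrometry in mild NP-40 versus SDS extracts, three biological replicates.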
# 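Throughout, for thermal stability score vs G1/S (z-score of summed log2 fold changes over temperatures): synchronized HeLa Kyoto cells, proteins quantified by TMT10plex mass spectrometry, three biological replicates, mitosis taken 0.5 h after nocodazole release, G1/S directly after double thymidine block.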
Sequence,melting temperature (HeLa Kyoto [1]; cell cycle stage: G1/S) [°C],melting temperature (HeLa Kyoto [1]; cell cycle stage: mitosis) [°C],solubility in G1/S (log2) (HeLa Kyoto [2]),solubility change mitosis (log2) (HeLa Kyoto [3]),thermal stability score (HeLa Kyoto [4]; [5]),thermal stability score (HeLa Kyoto [4]; cell cycle stage: mitosis)
MWNMLIVAMCLALLGCLQAQELQGHVSIILLGATGDLAKKYLWQGLFQLYLDEAGRGHSFSFHGAALTAPKQGQELMAKALESLSCPKDMAPSHCAEHKDQFLQLSQYRQLKTAEDYQALNKDIEAQLQHAGLREAGRIFYFSVPPFAYEDIARNINSSCRPGPGAWLRVVLEKPFGHDHFSAQQLATELGTFFQEEEMYRVDHYLGKQAVAQILPFRDQNRKALDGLWNRHHVERVEIIMKETVDAEGRTSFYEEYGVIRDVLQNHLTEVLTLVAMELPHNVSSAEAVLRHKLQVFQALRGLQRGSAVVGQYQSYSEQVRRELQKPDSFHSLTPTFAAVLVHIDNLRWEGVPFILMSGKALDERVGYARILFKNQACCVQSEKHWAAAQSQCLPRQLVFHIGHGDLGSPAVLVSRNLFRPSLPSSWKEMEGPPGLRLFGSPLSDYYAYSPVRERDAHSVLLSHIFHGRKNFFITTENLLASWNFWTPLLESLAHKAPRLYPGGAENGRLLDFEFSSGRLFFSQQQPEQLVPGPGPAPMPSDFQVLRAKYRESPLVSAWSEELISKLANDIEATAVRAVRRFGQFHLALSGGSSPVALFQQLATAHYGFPWAHTHLWLVDERCVPLSDPESNFQGLQAHLLQHVRIPYYNIHPMPVHLQQRLCAEEDQGAQIYAREISALVANSSFDLVLLGMGADGHTASLFPQSPTGLDGEQLVVLTTSPSQPHRRMSLSLPLINRAKKVAVLVMGRMKREITTLVSRVGHEPKKWPISGVLPHSGQLVWYMDYDAFLG [H6PD],53.3,53.7,0.122,0.0207,1.01,2.18
MEAVLTEELDEEEQLLRRHRKEKKELQAKIQGMKNAVPKNDKKRRKQLTEDVAKLEKEMEQKHREELEQLKLTTKENKIDSVAVNISNLVLENQPPRISKAQKRREKKAALEKEREERIAEAEIENLTGARHMESEKLAQILAARQLEIKQIPSDGHCMYKAIEDQLKEKDCALTVVALRSQTAEYMQSHVEDFLPFLTNPNTGDMYTPEEFQKYCEDIVNTAAWGGQLELRALSHILQTPIEIIQADSPPIIVGEEYSKKPLILVYMRHAYGLGEHYNSVTRLVNIVTENCS [OTUD6B],49.9,50,0.512,-0.0729,0.405,0.425
MAAPGGRGRSLSGLLPAQTSLEYALLDAVTQQEKDSLVYQYLQKVDGWEQDLSVPEFPEGLEWLNTEEPISVYKDLCGKIVVLDFFTYCCINCIHLLPDLHALEHTYSDKDGLLIIGVHSAKFPNEKVLDNIKSAVLRYNITHPMVNDADASLWQELEVSCWPTLVILGPRGNMLFSLIGEGHKDKLFLYTSIALKYYKDRGQIRDNKIGIKLYKDSLPPSPLLFPGKVTVDQVTDRLVIADTGHHRILVVWKNGQIQYSIGGPNPGRKDGIFSESTFNSPQGVAIMNNIIYVADTENHLIRKIDLEAEKVSTVAGIGIQGTDKEGGAKGEQQPISSPWDVVFGTSGSEVQRGDILWIAMAGTHQIWALLLDSGKLPKKNELTKGTCLRFAGSGNEENRNNAYPHKAGFAQPSGLSLASEDPWSCLFVADSESSTVRTVSLKDGAVKHLVGGERDPMNLFAFGDVDGVGINAKLQHPLGVTWDKKRNLLYVADSYNHKIKVVDPKTKNCTTLAGTGDTNNVTSSSFTESTFNEPGGLCIGENGELLYVADTNNHQIKVMDLETKMVSVLPIFRSENAVVDGPFLVEKQKTLPKLPKSAPSIRLSPVTACAGQTLQFKLRLDLPSGSKLTEGVSSCWFLTAEGNEWLLQGQIAAGDIENISSQPTISLQIPDDCLSLEAIVSVSVFLYYCSADSSACMMKAILFSQPLQITDTQQGCIAPVELRYVF [NHLRC2],52,52.1,0.0639,-0.199,0.332,-0.145
MALWRGSAYAGFLALAVGCVFLLEPELPGSALRSLWSSLCLGPAPAPPGPVSPEGRLAAAWDALIVRPVRRWRRVAVGVNACVDVVLSGVKLLQALGLSPGNGKDHSILHSRNDLEEAFIHFMGKGAAAERFFSDKETFHDIAQVASEFPGAQHYVGGNAALIGQKFAANSDLKVLLCGPVGPKLHELLDDNVFVPPESLQEVDEFHLILEYQAGEEWGQLKAPHANRFIFSHDLSNGAMNMLEVFVSSLEEFQPDLVVLSGLHMMEGQSKELQRKRLLEVVTSISDIPTGIPVHLELASMTNRELMSSIVHQQVFPAVTSLGLNEQELLFLTQSASGPHSSLSSWNGVPDVGMVSDILFWILKEHGRSKSRASDLTRIHFHTLVYHILATVDGHWANQLAAVAAGARVAGTQACATETIDTSRVSLRAPQEFMTSHSEAGSRIVLNPNKPVVEWHREGISFHFTPVLVCKDPIRTVGLGDAISAEGLFYSEVHPHY [ADPGK],55.3,55.4,-0.0136,-0.191,1.05,-1.45
MEEVRCPEHGTFCFLKTGVRDGPNKGKSFYVCRADTCSFVRATDIPVSHCLLHEDFVVELQGLLLPQDKKEYRLFFRCIRSKAEGKRWCGSIPWQDPDSKEHSVSNKSQHASETFHHSSNWLRNPFKVLDKNQEPALWKQLIKGEGEEKKADKKQREKGDQLFDQKKEQKPEMMEKDLSSGLVPKKKQSVVQEKKQEEGAEIQCEAETGGTHKRDFSEIKSQQCQGNELTRPSASSQEKSSGKSQDVQRESEPLREKVTQLLPQNVHSHNSISKPQKGGPLNKEYTNWEAKETKAKDGPSIQATQKSLPQGHFQERPETHSVPAPGGPAAQAAPAAPGLSLGEGREAATSSDDEEEDDVVFVSSKPGSPLLFDSTLDLETKENLQFPDRSVQRKVSPASGVSKKVEPSDPVARRVYLTTQLKQKKSTLASVNIQALPDKGQKLIKQIQELEEVLSGLTLSPEQGTNEKSNSQVPQQSHFTKTTTGPPHLVPPQPLPRRGTQPVGSLELKSACQVTAGGSSQCYRGHTNQDHVHAVWKITSEAIGQLHRSLESCPGETVVAEDPAGLKVPLLLHQKQALAWLLWRESQKPQGGILADDMGLGKTLTMIALILTQKNQEKKEEKEKSTALTWLSKDDSCDFTSHGTLIICPASLIHHWKNEVEKRVNSNKLRVYLYHGPNRDSRARVLSTYDIVITTYSLVAKEIPTNKQEAEIPGANLNVEGTSTPLLRIAWARIILDEAHNVKNPRVQTSIAVCKLQACARWAVTGTPIQNNLLDMYSLLKFLRCSPFDEFNLWRSQVDNGSKKGGERLSILTKSLLLRRTKDQLDSTGRPLVILPQRKFQLHHLKLSEDEETVYNVFFARSRSALQSYLKRHESRGNQSGRSPNNPFSRVALEFGSEEPRHSEAADSPRSSTVHILSQLLRLRQCCCHLSLLKSALDPMELKGEGLVLSLEEQLSALTLSELRDSEPSSTVSLNGTFFKMELFEGMRESTKISSLLAELEAIQRNSASQKSVIVSQWTNMLKVVALHLKKHGLTYATIDGSVNPKQRMDLVEAFNHSRGPQVMLISLLAGGVGLNLTGGNHLFLLDMHWNPSLEDQACDRIYRVGQQKDVVIHRFVCEGTVEEKILQLQEKKKDLAKQVLSGSGESVTKLTLADLRVLFGI [TTF2],48.3,49.1,-0.107,-0.0303,0.916,0.826
MGTPQKDVIIKSDAPDTLLLEKHADYIASYGSKKDDYEYCMSEYLRMSGIYWGLTVMDLMGQLHRMNREEILAFIKSCQHECGGISASIGHDPHLLYTLSAVQILTLYDSINVIDVNKVVEYVKGLQKEDGSFAGDIWGEIDTRFSFCAVATLALLGKLDAINVEKAIEFVLSCMNFDGGFGCRPGSESHAGQIYCCTGFLAITSQLHQVNSDLLGWWLCERQLPSGGLNGRPEKLPDVCYSWWVLASLKIIGRLHWIDREKLRNFILACQDEETGGFADRPGDMVDPFHTLFGIAGLSLLGEEQIKPVNPVFCMPEEVLQRVNVQPELVS [RABGGTB],49.8,50.3,0.122,-0.347,-0.232,1.64
MKFRAKIVDGACLNHFTRISNMIAKLAKTCTLRISPDKLNFILCDKLANGGVSMWCELEQENFFNEFQMEGVSAENNEIYLELTSENLSRALKTAQNARALKIKLTNKHFPCLTVSVELLSMSSSSRIVTHDIPIKVIPRKLWKDLQEPVVPDPDVSIYLPVLKTMKSVVEKMKNISNHLVIEANLDGELNLKIETELVCVTTHFKDLGNPPLASESTHEDRNVEHMAEVHIDIRKLLQFLAGQQVNPTKALCNIVNNKMVHFDLLHEDVSLQYFIPALS [HUS1],51.8,51.9,0.0659,-0.083,1.48,1.19
MFAKATRNFLREVDADGDLIAVSNLNDSDKLQLLSLVTKKKRFWCWQRPKYQFLSLTLGDVLIEDQFPSPVVVESDFVKYEGKFANHVSGTLETALGKVKLNLGGSSRVESQSSFGTLRKQEVDLQQLIRDSAERTINLRNPVLQQVLEGRNEVLCVLTQKITTMQKCVISEHMQVEEKCGGIVGIQTKTVQVSATEDGNVTKDSNVVLEIPAATTIAYGVIELYVKLDGQFEFCLLRGKQGGFENKKRIDSVYLDPLVFREFAFIDMPDAAHGISSQDGPLSVLKQATLLLERNFHPFAELPEPQQTALSDIFQAVLFDDELLMVLEPVCDDLVSGLSPTVAVLGELKPRQQQDLVAFLQLVGCSLQGGCPGPEDAGSKQLFMTAYFLVSALAEMPDSAAALLGTCCKLQIIPTLCHLLRALSDDGVSDLEDPTLTPLKDTERFGIVQRLFASADISLERLKSSVKAVILKDSKVFPLLLCITLNGLCALGREHS [DFNA5],52.8,53.7,-0.0213,-0.126,1.33,2.07
MAGAIASRMSFSSLKRKQPKTFTVRIVTMDAEMEFNCEMKWKGKDLFDLVCRTLGLRETWFFGLQYTIKDTVAWLKMDKKVLDHDVSKEEPVTFHFLAKFYPENAEEELVQEITQHLFFLQVKKQILDEKIYCPPEASVLLASYAVQAKYGDYDPSVHKRGFLAQEELLPKRVINLYQMTPEMWEERITAWYAEHRGRARDEAEMEYLKIAQDLEMYGVNYFAIRNKKGTELLLGVDALGLHIYDPENRLTPKISFPWNEIRNISYSDKEFTIKPLDKKIDVFKFNSSKLRVNKLILQLCIGNHDLFMRRRKADSLEVQQMKAQAREEKARKQMERQRLAREKQMREEAERTRDELERRLLQMKEEATMANEALMRSEETADLLAEKAQITEEEAKLLAQKAAEAEQEMQRIKATAIRTEEEKRLMEQKVLEAEVLALKMAEESERRAKEADQLKQDLQEAREAERRAKQKLLEIATKPTYPPMNPIPAPLPPDIPSFNLIGDSLSFDFKDTDMKRLSMEIEKEKVEYMEKSKHLQEQLNELKTEIEALKLKERETALDILHNENSDRGGSSKHNTIKKLTLQSAKSRVAFFEEL [NF2],51.6,50.7,-0.161,-0.0393,0.0456,0.294
MAAAPLKVCIVGSGNWGSAVAKIIGNNVKKLQKFASTVKMWVFEETVNGRKLTDIINNDHENVKYLPGHKLPENVVAMSNLSEAVQDADLLVFVIPHQFIHRICDEITGRVPKKALGITLIKGIDEGPEGLKLISDIIREKMGIDISVLMGANIANEVAAEKFCETTIGSKVMENGLLFKELLQTPNFRITVVDDADTVELCGALKNIVAVGAGFCDGLRCGDNTKAAVIRLGLMEMIAFARIFCKGQVSTATFLESCGVADLITTCYGGRNRRVAEAFARTGKTIEELEKEMLNGQKLQGPQTSAEVYRILKQKGLLDKFPLFTAVYQICYESRPVQEMLSCLQSHPEHT [GPD1L],53.2,53,0.144,-0.126,0.464,-0.000421
MAQQQMTSSQKALMLELKSLQEEPVEGFRITLVDESDLYNWEVAIFGPPNTLYEGGYFKAHIKFPIDYPYSPPTFRFLTKMWHPNIYENGDVCISILHPPVDDPQSGELPSERWNPTQNVRTILLSVISLLNEPNTFSPANVDASVMFRKWRDSKGKDKEYAEIIRKQVSATKAEAEKDGVKVPTTLAEYCIKTKVPSNDNSSDLLYDDLYDDDIDDEDEEEEDADCYDDDDSGNEES [UBE2R2],51.9,52.9,0.302,0.134,-2.34,-0.967
